Measurements published in patent EP2330125A2.

Key:
[1] = molecular target: neuropeptide Y2 receptor (UniProt P49146); assay: [125I]-human PYY displacement, SK-N-BE membranes
[2] = molecular target: CGRP receptor (Homo sapiens (Human)) (UniProt Q16602); assay: 125I-hCGRP displacement, SK-N-MC membranes
[3] = molecular target: calcitonin receptor; assay: calcitonin receptor binding assay
[4] = molecular target: calcitonin receptor; assay: cell-based or functional assay

neuropeptide Y2 receptor, sequence (P49146 whole entry): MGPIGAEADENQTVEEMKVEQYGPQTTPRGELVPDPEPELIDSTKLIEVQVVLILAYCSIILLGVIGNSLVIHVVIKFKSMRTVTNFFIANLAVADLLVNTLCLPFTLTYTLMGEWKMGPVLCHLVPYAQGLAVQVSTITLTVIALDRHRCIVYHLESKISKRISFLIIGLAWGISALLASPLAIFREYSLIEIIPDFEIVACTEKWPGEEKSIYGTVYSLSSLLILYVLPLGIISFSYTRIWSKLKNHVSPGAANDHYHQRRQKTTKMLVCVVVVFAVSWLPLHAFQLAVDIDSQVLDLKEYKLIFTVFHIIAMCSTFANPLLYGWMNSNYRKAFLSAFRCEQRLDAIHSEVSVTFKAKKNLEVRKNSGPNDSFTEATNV
calcitonin receptor, sequence (P30988 whole entry): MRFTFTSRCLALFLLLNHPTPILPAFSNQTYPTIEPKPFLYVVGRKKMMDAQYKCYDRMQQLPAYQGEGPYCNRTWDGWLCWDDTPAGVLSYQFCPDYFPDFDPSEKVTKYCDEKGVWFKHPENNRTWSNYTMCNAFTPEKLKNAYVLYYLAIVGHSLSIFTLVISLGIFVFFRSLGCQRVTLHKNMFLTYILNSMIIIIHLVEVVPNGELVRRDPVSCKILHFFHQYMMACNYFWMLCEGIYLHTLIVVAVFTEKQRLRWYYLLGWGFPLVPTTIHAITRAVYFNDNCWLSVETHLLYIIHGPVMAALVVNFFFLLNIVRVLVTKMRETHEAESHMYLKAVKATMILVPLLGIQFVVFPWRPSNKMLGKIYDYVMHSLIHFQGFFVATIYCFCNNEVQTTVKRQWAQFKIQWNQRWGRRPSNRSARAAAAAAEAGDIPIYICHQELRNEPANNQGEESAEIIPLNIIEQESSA

| Substance | Receptor Binding [1] | also measured |
| --- | --- | --- |
| [#Des-Lys1 Compound 10, amide] (Asp(#)-Pro-Pro-Pro-Pro-Pro-Pro-PYY (3-36), amide (peptide) | 0.5 |  |
| [#NH-Cys-(bAla)-PYY-(3-36), amide] [#Suc-(bAla)-PYY-(3-36), amide] (peptide) | 1.2 |  |
| Rat amylin (peptide) |  | Receptor Binding [2]: 21 |
| [#NH-Cys-(bAla)-PYY-(3-36), amide] [#Suc-(bAla)-PYY-(3-36), amide] (peptide; modification not given) |  | Receptor Binding [3]: 643; CT cyclase [4]: 2270 |
| 27(p-CH2SO3)-PheCCK8(26-33),G,K,R,15Glu,hAmy(1-17),18Arg,sCT(18-26),hAmy(32-37) (peptide) |  | Receptor Binding [2]: 4.4 |
| [#Cys-Gly-Gly-PYY (3-36), amide] [Asp(#)-Pro-Pro-Pro-Pro-Pro-Pro-PYY (3-36), amide] (peptide) | 0.8 |  |
| [#Cys-Gly-Gly-PYY (3-36), amide] [Asp(#)-miniPEG3-Gly-PYY (3-36), amide] (peptide) | 0.8 |  |

Continued, in another order:

| Receptor Binding [1] | Substance | also measured |
| --- | --- | --- |
| 0.8 | [Asp(#)-miniPEG-Gly-PYY (3-36), amide] [#Cys-Gly-Gly-PYY (3-36), amide] (peptide) |  |
| 0.2 | Human NPY (peptide) |  |
| 0.39 | [#Suc-(bAla)-PYY-(3-36), amide] [#NH-Des-Lys1-Rat Amylin, amide] (peptide) |  |
| 0.2 | [Ac-alpha-MSH-bAla-bAla-PYY-(3-36); amide] (peptide) |  |
